B1: TCR of SEQ ID NOs 539 and 540 (TCR, V domains shown)
Valpha: KQEVTQIPAALSVPEGENLVLNCSFTDSAIYNLQWFRQDPGKGLTSLLLIQSSQREQTSGRLNASLDKSSGRSTLYIAASQPGDSATYLCAVRVTGANNLFFGTGTRLTVIP
Vbeta: NAGVTQTPKFQVLKTGQSMTLQCAQDMNHEYMSWYRQDPGMGLRLIHYSVGAGITDQGEVPNGYNVSRLNKREFSLRLESAAPSQTSVYFCASRPVGGDYTGELFFGEGSRLTVL
B2: TCR of SEQ ID NOs 541 and 542 (TCR, V domains shown)
Valpha: KQEVTQIPAALSVPEGENLVLNCSFTDSAIYNLQWFRQDPGKGLTSLLLIQSSQREQTSGRLNASLDKSSGRSTLYIAASQPGDSATYLCAVDSWGKLQFGAGTQVVVTP
Vbeta: NAGVTQTPKFQVLKTGQSMTLQCAQDMNHEYMSWYRQDPGMGLRLIHYSVGAGITDQGEVPNGYNVSRSTTEDFPLRLLSAAPSQTSVYFCASSSLGLGDYGYTFGSGTRLTVV
B3: TCR of SEQ ID NOs 543 and 544 (TCR, V domains shown)
Valpha: KQEVTQIPAALSVPEGENLVLNCSFTDSAIYNLQWFRQDPGKGLTSLLLIQSSQREQTSGRLNASLDKSSGRSTLYIAASQPGDSATYLCAVGDDYKLSFGAGTTVTVRA
Vbeta: NAGVTQTPKFQVLKTGQSMTLQCAQDMNHNSMYWYRQDPGMGLRLIYYSASEGTTDKGEVPNGYNVSRLNKREFSLRLESAAPSQTSVYFCASSEGWGGRTEAFFGQGTRLTVV
B4: TCR of SEQ ID NOs 533 and 534 (TCR, V domains shown)
Valpha: KQEVTQIPAALSVPEGENLVLNCSFTDSAIYNLQWFRQDPGKGLTSLLLIQSSQREQTSGRLNASLDKSSGRSTLYIAASQPGDSATYLCAVSGYSTLTFGKGTMLLVSP
Vbeta: NAGVTQTPKFQVLKTGQSMTLQCAQDMNHEYMSWYRQDPGMGLRLIHYSVGAGITDQGEVPNGYNVSRSTTEDFPLRLLSAAPSQTSVYFCASSEGPFSEAFFGQGTRLTVV
B5: TCR of SEQ ID NOs 535 and 536 (TCR, V domains shown)
Valpha: KQEVTQIPAALSVPEGENLVLNCSFTDSAIYNLQWFRQDPGKGLTSLLLIQSSQREQTSGRLNASLDKSSGRSTLYIAASQPGDSATYLCAVGGYQKVTFGTGTKLQVIP
Vbeta: NAGVTQTPKFRVLKTGQSMTLLCAQDMNHNYMYWYRQDPGMGLKLIYYSVGAGITDKGEVPNGYNVSRSTTEDFPLRLELAAPSQTSVYFCASRVDTLGEAFFGQGTRLTVV
B6: TCR of SEQ ID NOs 537 and 538 (TCR, V domains shown)
Valpha: KQEVTQIPAALSVPEGENLVLNCSFTDSAIYNLQWFRQDPGKGLTSLLLIQSSQREQTSGRLNASLDKSSGRSTLYIAASQPGDSATYLCAVGGYDKVIFGPGTSLSVIP
Vbeta: NAGVTQTPKFQVLKTGQSMTLQCAQDMNHEYMSWYRQDPGMGLRLIHYSVGAGITDQGEVPNGYNVSRSTTEDFPLRLLSAAPSQTSVYFCASRLGQFGQAFFGQGTRLTVV
B7: TCR of SEQ ID NOs 527 and 528 (TCR, V domains shown)
Valpha: KQEVTQIPAALSVPEGENLVLNCSFTDSAIYNLQWFRQDPGKGLTSLLLIQSSQREQTSGRLNASLDKSSGRSTLYIAASQPGDSATYLCAVRPSGSARQLTFGSGTQLTVLP
Vbeta: NAGVTQTPKFQVLKTGQSMTLQCAQDMNHEYMSWYRQDPGMGLRLIHYSVGAGITDQGEVPNGYNVSRSTTEDFPLRLLSAAPSQTSVYFCASSYGVYTEAFFGQGTRLTVV
B8: TCR of SEQ ID NOs 529 and 530 (TCR, V domains shown)
Valpha: KQEVTQIPAALSVPEGENLVLNCSFTDSAIYNLQWFRQDPGKGLTSLLLIQSSQREQTSGRLNASLDKSSGRSTLYIAASQPGDSATYLCAVRPSTDSWGKLQFGAGTQVVVTP
Vbeta: NAGVTQTPKFQVLKTGQSMTLQCAQDMNHEYMSWYRQDPGMGLRLIHYSVGAGITDQGEVPNGYNVSRSTTEDFPLRLLSAAPSQTSVYFCASSPTGYYGYTFGSGTRLTVV
B9: TCR of SEQ ID NOs 531 and 532 (TCR, V domains shown)
Valpha: KQEVTQIPAALSVPEGENLVLNCSFTDSAIYNLQWFRQDPGKGLTSLLLIQSSQREQTSGRLNASLDKSSGRSTLYIAASQPGDSATYLCAVLSNFGNEKLTFGTGTRLTIIP
Vbeta: NAGVTQTPKFRILKIGQSMTLQCTQDMNHNYMYWYRQDPGMGLKLIYYSVGAGITDKGEVPNGYNVSRSTTEDFPLRLLSAAPSQTSVYFCASTREAGLDYGYTFGSGTRLTVV
B10: TCR of SEQ ID NOs 551 and 552 (TCR, V domains shown)
Valpha: KQEVTQIPAALSVPEGENLVLNCSFTDSAIYNLQWFRQDPGKGLTSLLLIQSSQREQTSGRLNASLDKSSGRSTLYIAASQPGDSATYLCAVTGNQFYFGTGTSLTVIP
Vbeta: NAGVTQTPKFRVLKTGQSMTLQCAQDMNHEYMYWYRQDPGMGLRLIHYSVGAGITDQGEVPNGYNVSRSTTEDFPLRLLSAAPSQTSVYFCASSTYPVWGGEKMFFGSGTQLSVL
B11: TCR of SEQ ID NOs 553 and 554 (TCR, V domains shown)
Valpha: QKEVEQNSEPLSVPEGAIASLNCTYSDRGSQSFFWYRQYSGKSPELIMSIYSNGDKEDGRFTAQLNKASQYVSLLIRDSQPSDSATYLCAVNSQGGKLMFGQGTELSVKP
Vbeta: NAGVTQTPKFRVLKTGQSMTLQCAQDMNHNYMYWYRQDPGMGLRLIHYSVGEGTTAKGEVPDGYNVSRLKKQNFLLGLESAAPSQTSVYFCASSYAPWPGPYEQYVGPGTRLTVT
B12: TCR of SEQ ID NOs 555 and 556 (TCR, V domains shown)
Valpha: KQEVTQIPAALSVPEGENLVLNCSFTDSAIYNLQWFRQDPGKGLTSLLLIQSSQREQTSGRLNASLDKSSGRSTLYIAASQPGDSATYLCAVQTGANNLFFGTGTRLTVIP
Vbeta: NAGVTQTPKFRILKIGQSMTLQCTQDMNHNYMYWYRQDPGMGLRLIHYSVGAGITDQGEVPNGYNVSRSTTEDFPLRLLSAAPSQTSVYFCASSTYPVWGGEKLFFGSGTQLSVL
B13: TCR of SEQ ID NOs 545 and 546 (TCR, V domains shown)
Valpha: KQEVTQIPAALSVPEGENLVLNCSFTDSAIYNLQWFRQDPGKGLTSLLLIQSSQREQTSGRLNASLDKSSGRSTLYIAASQPGDSATYLCAVRDDYKLSFGAGTTVTVRA
Vbeta: NAGVTQTPKFRVLKTGQSMTLLCAQDMNHEYMYWYRQDPGMGLRLIHYSVGEGTTAKGEVPDGYNVSRLKKQNFLLGLESAAPSQTSVYFCASSYGPGQIYGYTFGSGTRLTVV
B14: TCR of SEQ ID NOs 547 and 548 (TCR, V domains shown)
Valpha: KQEVTQIPAALSVPEGENLVLNCSFTDSAIYNLQWFRQDPGKGLTSLLLIQSSQREQTSGRLNASLDKSSGRSTLYIAASQPGDSATYLCAVRQGYSTLTFGKGTMLLVSP
Vbeta: NAGVTQTPKFQVLKTGQSMTLQCAQDMNHNSMYWYRQDPGMGLRLIYYSASEGTTDKGEVPNGYNVSRLNKREFSLRLESAAPSQTSVYFCASSYSYPLAVGELFFGEGSRLTVL
B15: TCR of SEQ ID NOs 549 and 550 (TCR, V domains shown)
Valpha: KQEVTQIPAALSVPEGENLVLNCSFTDSAIYNLQWFRQDPGKGLTSLLLIQSSQREQTSGRLNASLDKSSGRSTLYIAASQPGDSATYLCAVSNDYKLSFGAGTTVTVRA
Vbeta: NAGVTQTPKFRVLKTGQSMTLLCAQDMNHEYMYWYRQDPGMGLRLIHYSVGEGTTAKGEVPDGYNVSRLKKQNFLLGLESAAPSQTSVYFCASSYSSRIYNEQFFGPGTRLTVL

Target: T1, SAGE1 peptide on HLA (human)
T1 peptide: TVLPGLTYL
Assay: binding, other

Binding result, recognises:
B1
B2
B3

Target: T2, SAGE1 peptide on HLA (human)
T2 peptide: GLYSTVPHNV
Assay: binding, other

Binding result, recognises:
B4
B5
B6

Target: T3, RLN1 peptide on HLA (human)
T3 peptide: LLLNQFSRA
Assay: binding, other

Binding result, recognises:
B7
B8
B9

Target: T4, SLC30A8 peptide on HLA (human)
T4 peptide: ILAVDGVLSV
Assay: binding, other

Binding result, recognises:
B10
B11
B12

Target: T5, SAGE1 peptide on HLA (human)
T5 peptide: VLIQQLEKA
Assay: binding, other

Binding result, recognises:
B13
B14
B15

Reference: US20230346885A1 (published 2023)
